This data set deals with Escherichia coli TOP10. Description: shrunken log2 fold change of peptide-encoding DNA abundance (4.5 h post-induction vs induction); higher = less antimicrobial activity (less host growth inhibition). The conditions noted are these: time post-induction: 4.5 h; library: site-saturation at positions 5, 18, 19, 20.

Experimental findings from the supplement of paper PMC9112550, “Optimization of the antimicrobial peptide Bac7 by deep mutational scanning” (BMC Biology, 2022) are described below.
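Note: peptides expressed intracellularly from a pBAD plasmid library in pooled LB shake-flask culture, induced with 0.3% L-arabinose, DNA abundance read by NGS, three biological replicates, DESeq2 with apeglm shrinkage.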

As for RRIRVRPPRLPRPRPRPNRFPRP, the “shrunken log2 fold change” value came to 0.11.
On to RRIRCRPPRLPRPRPRPAMFPRP, for which the “shrunken log2 fold change” value was -0.0946.
On to RRIRGRPPRLPRPRPRPVKCPRP, for which the “shrunken log2 fold change” value was -0.118.
Regarding RRIRPRPPRLPRPRPRPQYDPRP, the “shrunken log2 fold change” value is -0.638.
Regarding RRIRMRPPRLPRPRPRPWIDPRP, the “shrunken log2 fold change” value was -0.146.
Take RRIRCRPPRLPRPRPRPETKPRP: the “shrunken log2 fold change” value is 0.0774.
With RRIRQRPPRLPRPRPRPRCQPRP, the “shrunken log2 fold change” value is -0.0547.
RRIRFRPPRLPRPRPRPYSKPRP: the “shrunken log2 fold change” value was -0.996.
Regarding RRIRARPPRLPRPRPRPFNWPRP, the “shrunken log2 fold change” value was 0.0857.
Take RRIRPRPPRLPRPRPRPHNQPRP: the “shrunken log2 fold change” value is -0.378.
As for RRIRVRPPRLPRPRPRPHYTPRP, the “shrunken log2 fold change” value was -0.169.
Take RRIRYRPPRLPRPRPRPKIWPRP: the “shrunken log2 fold change” value is -0.475.
As to RRIRRRPPRLPRPRPRPRCGPRP, the “shrunken log2 fold change” value came to 0.474.
As to RRIRLRPPRLPRPRPRPLMTPRP, the “shrunken log2 fold change” value is -0.344.
For the sequence RRIRDRPPRLPRPRPRPARFPRP, the “shrunken log2 fold change” value is 0.446.
As to RRIRLRPPRLPRPRPRPMHSPRP, the “shrunken log2 fold change” value is -0.13.
For RRIRKRPPRLPRPRPRPEQQPRP, the “shrunken log2 fold change” value was found to be 1.43.
Consider RRIRYRPPRLPRPRPRPCPVPRP, for which the “shrunken log2 fold change” value was -0.143.
As to RRIRFRPPRLPRPRPRPPLCPRP, the “shrunken log2 fold change” value amounted to 0.282.
Turning to RRIRKRPPRLPRPRPRPFIDPRP, the “shrunken log2 fold change” value worked out at 0.0226.
As to RRIRCRPPRLPRPRPRPRAFPRP, the “shrunken log2 fold change” value is -0.0361.
Turning to RRIRCRPPRLPRPRPRPWACPRP, the “shrunken log2 fold change” value is -0.0929.
As for RRIRFRPPRLPRPRPRPFCIPRP, the figure is -0.518; as for RRIRNRPPRLPRPRPRPLIHPRP, -0.714; as for RRIRTRPPRLPRPRPRPWRAPRP, 0.21.
Take RRIRGRPPRLPRPRPRPLRRPRP: the “shrunken log2 fold change” value worked out at 1.54.
As to RRIRKRPPRLPRPRPRPILKPRP, the “shrunken log2 fold change” value is 0.117.
Turning to RRIRMRPPRLPRPRPRPHVLPRP, the “shrunken log2 fold change” value was -0.00145.
With RRIRPRPPRLPRPRPRPESIPRP the figure was -0.0804.
RRIRIRPPRLPRPRPRPEWPPRP: the “shrunken log2 fold change” value turned out to be 0.0836.
For the sequence RRIRLRPPRLPRPRPRPKEYPRP, the “shrunken log2 fold change” value is -0.567.
Turning to RRIRPRPPRLPRPRPRPRAEPRP, the “shrunken log2 fold change” value came out at 0.526.
Consider RRIRDRPPRLPRPRPRPGWKPRP, for which the “shrunken log2 fold change” value is 0.136.
In the case of RRIRTRPPRLPRPRPRPLKQPRP, the “shrunken log2 fold change” value was 0.0283.
With RRIRQRPPRLPRPRPRPIMPPRP the figure was -0.361.
With RRIRKRPPRLPRPRPRPSWPPRP the figure was 0.321.
RRIRHRPPRLPRPRPRPWTEPRP: the “shrunken log2 fold change” value came out at 0.0218.
In the case of RRIRIRPPRLPRPRPRPGDCPRP, the “shrunken log2 fold change” value is -0.185.
For the sequence RRIRFRPPRLPRPRPRPMAGPRP, the “shrunken log2 fold change” value is -0.111.
As for RRIRQRPPRLPRPRPRPKNLPRP, the “shrunken log2 fold change” value is -0.186.
With RRIRARPPRLPRPRPRPNWVPRP the figure was -0.361; with RRIRCRPPRLPRPRPRPQIAPRP, -0.0699; with RRIRVRPPRLPRPRPRPQKWPRP, 0.202.
As for RRIRFRPPRLPRPRPRPPKCPRP, the “shrunken log2 fold change” value was found to be 0.0793.
Turning to RRIRTRPPRLPRPRPRPAGDPRP, the “shrunken log2 fold change” value came out at 0.258.
Regarding RRIRLRPPRLPRPRPRPLSHPRP, the “shrunken log2 fold change” value stood at 0.2.
With RRIRCRPPRLPRPRPRPAMCPRP the figure was -0.144.
Turning to RRIRGRPPRLPRPRPRPMTRPRP, the “shrunken log2 fold change” value stood at 0.519.
With RRIRMRPPRLPRPRPRPQTMPRP the figure was 0.276; with RRIRLRPPRLPRPRPRPQETPRP, 0.0529.
As for RRIRCRPPRLPRPRPRPYFEPRP, the figure is -0.572; as for RRIRHRPPRLPRPRPRPCEVPRP, -0.00674; as for RRIRWRPPRLPRPRPRPEIQPRP, 0.685.
Turning to RRIRLRPPRLPRPRPRPHILPRP, the “shrunken log2 fold change” value was -0.0127.
With RRIRNRPPRLPRPRPRPALYPRP the figure was -0.125.
Regarding RRIRERPPRLPRPRPRPFEPPRP, the “shrunken log2 fold change” value is -0.195.
As for RRIRMRPPRLPRPRPRPNRSPRP, the figure is -0.0367; as for RRIRMRPPRLPRPRPRPYRWPRP, -0.00788.
As to RRIRRRPPRLPRPRPRPNLFPRP, the “shrunken log2 fold change” value was 0.177.
For the sequence RRIRRRPPRLPRPRPRPQKPPRP, the “shrunken log2 fold change” value is -0.138.
Regarding RRIRFRPPRLPRPRPRPSVFPRP, the “shrunken log2 fold change” value was -0.165.
As for RRIRIRPPRLPRPRPRPMPDPRP, the figure is 0.0702; as for RRIRVRPPRLPRPRPRPPVFPRP, 0.00719; as for RRIRVRPPRLPRPRPRPCFRPRP, -0.164.
For the sequence RRIRTRPPRLPRPRPRPKGAPRP, the “shrunken log2 fold change” value is 0.351.
For RRIRFRPPRLPRPRPRPQVFPRP, the “shrunken log2 fold change” value was -0.139.
Take RRIRSRPPRLPRPRPRPRQKPRP: the “shrunken log2 fold change” value is 0.29.
As for RRIRDRPPRLPRPRPRPHVIPRP, the “shrunken log2 fold change” value was -0.0856.
As for RRIRMRPPRLPRPRPRPKEYPRP, the figure is 0.189; as for RRIRTRPPRLPRPRPRPHTQPRP, -0.0664.
As to RRIRGRPPRLPRPRPRPFVHPRP, the “shrunken log2 fold change” value worked out at 0.111.
With RRIRPRPPRLPRPRPRPATLPRP the figure was 0.223; with RRIRHRPPRLPRPRPRPKYTPRP, 0.973.
RRIRMRPPRLPRPRPRPLKPPRP: the “shrunken log2 fold change” value was found to be 0.528.
With RRIRQRPPRLPRPRPRPYKHPRP the figure was -0.161; with RRIRHRPPRLPRPRPRPQEPPRP, -0.136; with RRIRTRPPRLPRPRPRPINDPRP, -0.293.
As for RRIRWRPPRLPRPRPRPWICPRP, the “shrunken log2 fold change” value is -0.137.
For RRIRPRPPRLPRPRPRPVLFPRP, the “shrunken log2 fold change” value stood at 0.118.
As for RRIRHRPPRLPRPRPRPHHLPRP, the “shrunken log2 fold change” value was -0.0119.
Regarding RRIRCRPPRLPRPRPRPSRNPRP, the “shrunken log2 fold change” value came out at 0.155.
Turning to RRIRGRPPRLPRPRPRPRKYPRP, the “shrunken log2 fold change” value was determined as 0.0397.
With RRIRCRPPRLPRPRPRPFVIPRP, the “shrunken log2 fold change” value is -0.526.
In the case of RRIRERPPRLPRPRPRPHDVPRP, the “shrunken log2 fold change” value is 0.00785.
On to RRIRMRPPRLPRPRPRPARQPRP, for which the “shrunken log2 fold change” value was found to be 0.825.
On to RRIRARPPRLPRPRPRPGSLPRP, for which the “shrunken log2 fold change” value is 0.056.
Consider RRIRIRPPRLPRPRPRPLYTPRP, for which the “shrunken log2 fold change” value is -0.723.
On to RRIRVRPPRLPRPRPRPYWHPRP, for which the “shrunken log2 fold change” value was -0.636.
Turning to RRIRNRPPRLPRPRPRPDRQPRP, the “shrunken log2 fold change” value is -0.0285.
Consider RRIRWRPPRLPRPRPRPWMSPRP, for which the “shrunken log2 fold change” value is -0.353.
In the case of RRIRYRPPRLPRPRPRPLAGPRP, the “shrunken log2 fold change” value is 0.0192.
